# In US20210070881A1 (DENALI THERAPEUTICS, published 2021):
# Positions count from the first letter of the chain named.
# B1: 2H8.31 (antibody, human IgG1, V domains shown)
# VH: EVQLQQSGPELVKPGASVKLSCKASGYTFTNFWIHWLKQRPGQGLEWIGMIDPSDSYTKYNQKFKAKATLTVDTSSSTTYMHLSSLTSEDSAVYYCARSGVAFPYWGQRTLVTVSA
# VL: DIQMTQSQKFMSKSVGDRVSVTCKASQNVGSNVAWYQQKSGQSPKSLIYSASHRYSGVPDRFTGSGSGTDFTLTISNVQSEDLADYFCQQYNSYPYTFGGGTRLEIK
# notes: human IgG1/kappa; also called 2H8_HC + 2H8_LCvar6
# B2: 2H8.04 (antibody, human IgG1, V domains shown)
# VH: EIQLQQSGTELVRPGTSVKLSCKASGYTFTNYWMHWVKQRPGQGLEWIGMIDPSAAYTNYNQNFKGKATLTVDTSSGTAYMQLSSLTSEDSAVYYCARSGVAFPYWGQGTTVTVSS
# VL: B1 VL with Q3V, R18T, N28D, S31R
# notes: human IgG1/kappa; also called 2H8_HCvar4 + 2H8_LC
# B3: 2H8.39 (antibody, human IgG1, V domains shown)
# VH: B1 VH with P9A, K13R, A16T, N31S, F32Y, L37V, A66D
# VL: B1 VL with Q3L, K13T, S31R, K39I, S46P, A84V, D85E, Y86F, R103K
# notes: human IgG1/kappa; also called 2H8_HCvar3 + 2H8_LCvar7
# B4: 2H8.35 (antibody, human IgG1, V domains shown)
# VH: EVQLQQPGAEVVRPGTSVKLSCKASGYTFTNYWMHWVKQRPGQGLEWIGMIDPSDNYTKYNQKLKGKATLTVDTSSSTANMHVNSLTSEDSAVYFCARSGVAFPYWGQGTLVTVSA
# VL: B1 VL
# notes: human IgG1/kappa; also called 2H8_HCvar5 + 2H8_LCvar6
# B5: 2H8.32 (antibody, human IgG1, V domains shown)
# VH: B2 VH with I2V, S7P, V37I, A55D, A56T, N59K, Y60F, G77S, S84N
# VL: B1 VL
# notes: human IgG1/kappa; also called 2H8_HCvar2 + 2H8_LCvar6
# B6: 2H8.05 (antibody, human IgG1, V domains shown)
# VH: B4 VH
# VL: B1 VL with Q3V, R18T, N28D, S31R
# notes: human IgG1/kappa; also called 2H8_HCvar5 + 2H8_LC
# B7: 2H8.37 (antibody, human IgG1, V domains shown)
# VH: B1 VH
# VL: B1 VL with Q3L, K13T, S31R, K39I, S46P, A84V, D85E, Y86F, R103K
# notes: human IgG1/kappa; also called 2H8_HC + 2H8_LCvar7
# B8: 2H8.42 (antibody, human IgG1, V domains shown)
# VH: EVQLQQSGAELVRPGTSVKLSCKASGYTFNNYWMHWVKQRPGQGLEWIGMIDPSDDDIKNNQKFKGKATLTVDTSSSTAYMQLISLTSEDSAVYYCARSGVALPYWGQGTLVTVSA
# VL: B1 VL with Q3L, K13T, S31R, K39I, S46P, A84V, D85E, Y86F, R103K
# notes: human IgG1/kappa; also called 2H8_HCvar6 + 2H8_LCvar7
# B9: 2H8.41 (antibody, human IgG1, V domains shown)
# VH: B4 VH
# VL: B1 VL with Q3L, K13T, S31R, K39I, S46P, A84V, D85E, Y86F, R103K
# notes: human IgG1/kappa; also called 2H8_HCvar5 + 2H8_LCvar7
# B10: 2H8.02 (antibody, human IgG1, V domains shown)
# VH: B2 VH with I2V, S7P, V37I, A55D, A56T, N59K, Y60F, G77S, S84N
# VL: B1 VL with Q3V, R18T, N28D, S31R
# notes: human IgG1/kappa; also called 2H8_HCvar2 + 2H8_LC
# B11: hu2H8v4 (antibody, V domains shown)
# VH: QVQLVQSGAEVKKPGASVKVSCKASGYTFTNFWIHWVRQAPGQGLEWMGMIDPSDSYTKYNQKFKARATLTRDTSTSTVYMELSSLRSEDTAVYYCARSGVAFPYWGQGTLVTVSS
# VL: DIQMTQSPSSLSASVGDRVTITCKASQDVGRNVAWYQQKPGKAPKLLIYSASHRYSGVPSRFSGSGSGTDFTLTISSLQPEDFATYYCQQYNSYPYTFGQGTKVEIK
# notes: humanized; also called hu2H8_HC5 + hu2H8_LC1
# B12: hu2H8v7 (antibody, V domains shown)
# VH: B11 VH with A68V, L70M, V79T
# VL: B11 VL with A43S
# notes: humanized; also called hu2H8_HC1 + hu2H8_LC2
# B13: hu2H8v19 (antibody, V domains shown)
# VH: B11 VH with A68V, L70M, V79T
# VL: B11 VL with A43S, L46S
# notes: humanized; also called hu2H8_HC1 + hu2H8_LC4
# B14: hu2H8v9 (antibody, V domains shown)
# VH: B11 VH with V37L, A68V, L70M, R72V, V79T
# VL: B11 VL with A43S
# notes: humanized; also called hu2H8_HC3 + hu2H8_LC2
# B15: hu2H8v14 (antibody, V domains shown)
# VH: B11 VH with V37L, A68V, L70M, V79T
# VL: B11 VL with L46S
# notes: humanized; also called hu2H8_HC2 + hu2H8_LC3
# B16: hu2H8v29.12 (antibody, V domains shown)
# VH: B11 VH with T30N, R72V
# VL: B11 VL with A43S, L46S, Y87F
# notes: captured via human Fc; also called hu2H8_LC5 + hu2H8_HC6.1
# B17: hu2H8v8 (antibody, V domains shown)
# VH: B11 VH with V37L, A68V, L70M, V79T
# VL: B11 VL with A43S
# notes: humanized; also called hu2H8_HC2 + hu2H8_LC2
# B18: hu2H8v16 (antibody, V domains shown)
# VH: B11 VH
# VL: B11 VL with L46S
# notes: humanized; also called hu2H8_HC5 + hu2H8_LC3
# B19: hu2H8v24 (antibody, V domains shown)
# VH: B11 VH with V37L, R72V, V79T
# VL: B11 VL with A43S, L46S
# notes: humanized; also called hu2H8_HC7 + hu2H8_LC4
# B20: hu2H8v15 (antibody, V domains shown)
# VH: B11 VH with V37L, A68V, L70M, R72V, V79T
# VL: B11 VL with L46S
# notes: humanized; also called hu2H8_HC3 + hu2H8_LC3
# B21: hu2H8v5 (antibody, V domains shown)
# VH: B11 VH with R72V
# VL: B11 VL
# notes: humanized; also called hu2H8_HC6 + hu2H8_LC1
# B22: hu2H8v13 (antibody, V domains shown)
# VH: B11 VH with A68V, L70M, V79T
# VL: B11 VL with L46S
# notes: humanized; also called hu2H8_HC1 + hu2H8_LC3
# B23: hu2H8v18 (antibody, V domains shown)
# VH: B11 VH with V37L, R72V, V79T
# VL: B11 VL with L46S
# notes: humanized; also called hu2H8_HC7 + hu2H8_LC3
# B24: hu2H8v22 (antibody, V domains shown)
# VH: B11 VH
# VL: B11 VL with A43S, L46S
# notes: humanized; also called hu2H8_HC5 + hu2H8_LC4
# B25: hu2H8v21 (antibody, V domains shown)
# VH: B11 VH with V37L, A68V, L70M, R72V, V79T
# VL: B11 VL with A43S, L46S
# notes: humanized; also called hu2H8_HC3 + hu2H8_LC4
# B26: hu2H8v10 (antibody, V domains shown)
# VH: B11 VH
# VL: B11 VL with A43S
# notes: humanized
# B27: hu2H8v11 (antibody, V domains shown)
# VH: B11 VH with R72V
# VL: B11 VL with A43S
# notes: humanized; also called hu2H8_HC6 + hu2H8_LC2
# B28: hu2H8v25 (antibody, V domains shown)
# VH: B11 VH with A68V, L70M, V79T
# VL: B11 VL with A43S, L46S, Y87F
# notes: humanized; also called hu2H8_HC1 + hu2H8_LC5
# B29: hu2H8v20 (antibody, V domains shown)
# VH: B11 VH with V37L, A68V, L70M, V79T
# VL: B11 VL with A43S, L46S
# notes: humanized; also called hu2H8_HC2 + hu2H8_LC4
# B30: hu2H8v6 (antibody, V domains shown)
# VH: B11 VH with V37L, R72V, V79T
# VL: B11 VL
# notes: humanized; also called hu2H8_HC7 + hu2H8_LC1
# B31: hu2H8v26 (antibody, V domains shown)
# VH: B11 VH with V37L, A68V, L70M, V79T
# VL: B11 VL with A43S, L46S, Y87F
# notes: humanized; also called hu2H8_HC2 + hu2H8_LC5
# B32: hu2H8v30 (antibody, V domains shown)
# VH: B11 VH with V37L, R72V, V79T
# VL: B11 VL with A43S, L46S, Y87F
# notes: humanized; also called hu2H8_HC7 + hu2H8_LC5
# B33: hu2H8v12 (antibody, V domains shown)
# VH: B11 VH with V37L, R72V, V79T
# VL: B11 VL with A43S
# notes: humanized; also called hu2H8_HC7 + hu2H8_LC2
# B34: hu2H8v23 (antibody, V domains shown)
# VH: B11 VH with R72V
# VL: B11 VL with A43S, L46S
# notes: humanized; also called hu2H8_HC6 + hu2H8_LC4
# B35: hu2H8v28 (antibody, V domains shown)
# VH: B11 VH
# VL: B11 VL with A43S, L46S, Y87F
# notes: humanized; also called hu2H8_HC5 + hu2H8_LC5
# Tests used:
# [1] = target: T1, recombinant BACE1 (BACE1 extracellular domain, R&D Systems Cat#931-AS) (UniProt P56817 22-457); assay: SPR Biacore
# T1 construct: extracellular domain; also called BACE1 extracellular domain protein
# [2] = target: cellular BACE1 in CHOK1-huAPP cells; assay: cell-based or functional assay
# [3] = target: T1, recombinant BACE1 (BACE1 extracellular …); assay: SPR Biacore; remark: listed apart in the source
# [4] = target: T1, recombinant BACE1 (BACE1 extracellular …); assay: SPR Biacore 8K, antibody captured, BACE1 analyte
# Experimental: The binding affinities of the affinity matured humanized 2H8 variants for BACE1 were determined by surface plasmon resonance using a Biacore™ 8K instrument. […] The binding was monitored for 300 seconds and then dissociation was monitored for 600+ seconds in HBS-EP+ running buffer (GE Healthcare Life Sciences, BR100669). Binding response was corrected by subtracting the RU from a blank flow cell. A 1:1 Langmuir model of simultaneous fitting of kₒₙ and koff was used for kinetics analysis.
# T1 sequence (P56817 22-457): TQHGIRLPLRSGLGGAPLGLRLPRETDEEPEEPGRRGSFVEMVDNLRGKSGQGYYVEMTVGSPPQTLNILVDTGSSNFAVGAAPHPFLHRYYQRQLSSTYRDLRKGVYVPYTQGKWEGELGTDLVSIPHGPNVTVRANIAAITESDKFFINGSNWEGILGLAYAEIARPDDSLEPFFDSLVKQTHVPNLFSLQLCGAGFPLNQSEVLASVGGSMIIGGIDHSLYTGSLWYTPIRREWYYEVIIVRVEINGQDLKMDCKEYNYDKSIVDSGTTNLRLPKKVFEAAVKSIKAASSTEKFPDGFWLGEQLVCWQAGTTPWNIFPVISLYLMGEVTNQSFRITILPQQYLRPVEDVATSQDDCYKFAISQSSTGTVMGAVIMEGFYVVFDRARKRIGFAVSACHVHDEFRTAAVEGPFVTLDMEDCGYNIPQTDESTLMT
binder,measurement,setting,value
B1,Kd,[1],11.1 nM
same,koff,[1],0.000168 s⁻¹
same,kon,[1],15200 M⁻¹ s⁻¹
same,IC50,[2],33 nM
same,Max. % inhibition,[2],94%
B2,Kd,[1],15.6 nM
same,koff,[1],0.000362 s⁻¹
same,kon,[1],23300 M⁻¹ s⁻¹
same,IC50,[2],26 nM
same,Max. % inhibition,[2],82%
B3,Kd,[1],13 nM
same,koff,[1],0.000217 s⁻¹
same,kon,[1],16600 M⁻¹ s⁻¹
same,IC50,[2],43 nM
same,Max. % inhibition,[2],86%
B4,Kd,[1],15.2 nM
same,koff,[1],0.000171 s⁻¹
same,kon,[1],11200 M⁻¹ s⁻¹
same,IC50,[2],41 nM
same,Max. % inhibition,[2],85%
B5,Kd,[1],11.4 nM
same,koff,[1],0.000172 s⁻¹
same,kon,[1],15100 M⁻¹ s⁻¹
same,IC50,[2],61 nM
same,Max. % inhibition,[2],86%
B6,Kd,[1],13.7 nM
same,koff,[1],0.000251 s⁻¹
same,kon,[1],18300 M⁻¹ s⁻¹
same,IC50,[2],44 nM
same,Max. % inhibition,[2],87%
B7,Kd,[1],16.4 nM
same,koff,[1],0.000331 s⁻¹
same,kon,[1],20200 M⁻¹ s⁻¹
same,IC50,[2],32 nM
same,Max. % inhibition,[2],93%
B8,Kd,[1],11.6 nM
same,koff,[1],0.000221 s⁻¹
same,kon,[1],19000 M⁻¹ s⁻¹
same,IC50,[2],53 nM
same,Max. % inhibition,[2],97%
B9,Kd,[1],10.7 nM
same,koff,[1],0.000197 s⁻¹
same,kon,[1],18500 M⁻¹ s⁻¹
same,IC50,[2],36 nM
same,Max. % inhibition,[2],86%
B10,Kd,[1],13.1 nM
same,koff,[1],0.000265 s⁻¹
same,kon,[1],20200 M⁻¹ s⁻¹
same,IC50,[2],42 nM
same,Max. % inhibition,[2],81%
B11,Kd,[3],169 nM
B12,Kd,[3],150 nM
B13,Kd,[3],17.4 nM
B14,Kd,[3],130 nM
B15,Kd,[3],17.7 nM
B16,Kd,[4],8.42 nM
B17,Kd,[3],155 nM
B18,Kd,[3],25.6 nM
B19,Kd,[3],74 nM
B20,Kd,[3],16.4 nM
B21,Kd,[3],96.3 nM
B22,Kd,[3],22.8 nM
B23,Kd,[3],20.7 nM
B24,Kd,[3],21.9 nM
B25,Kd,[3],13.5 nM
B26,Kd,[3],160 nM
B27,Kd,[3],88.3 nM
B28,Kd,[3],22.1 nM
B29,Kd,[3],13.2 nM
B30,Kd,[3],109 nM
B31,Kd,[3],16.3 nM
B32,Kd,[3],23.7 nM
B33,Kd,[3],171 nM
B34,Kd,[3],28 nM
B35,Kd,[3],19.5 nM
